# Measured values taken from patent US12454527B2, “Conjugate monomethyl auristatin E to obtain a composition for treatment of prostate cancer” (priority 2019, dated 2025).
# “And” between values parts separate entries of the source, which are not always exact repeats. Equal entries are not always repeated. Where two headings read alike, the source gives them in different places. Starred links: 1 amine or outer side, 2 acyl side, 3 side chain; linkers in the order of their positions; H or OH if unused. Non-standard residues stand in square brackets, D forms with d. Residues, ends and D or L forms follow the SMILES beside them. ξ: configuration not given here. *: point of attachment. GluureaLys(ε-3-ClBenzyl) = O=C(O)CC[C@H](NC(=O)N[C@@H](CCCCN(Cc1cccc(Cl)c1)*)C(=O)O)C(=O)O; Dolaproine = CO[C@@H]([C@@H]1CCCN1)[C@@H](C)C(=O)O; Dil = CC[C@H](C)[C@H](NC)[C@@H](CC(=O)O)OC; X1 = O=C(CCCc1cn(CCCN[*:1])nn1)[*:2]; PABC = O=C(OCc1ccc(N[*:1])cc1)[*:2]; X2 = C[C@@H](N*)[C@@H](O)c1ccccc1; Cit = NC(=O)NCCC[C@H](N)C(=O)O; Suc = O=C(CCC(=O)[*:2])[*:1]; NMeV = CN[C@H](C(=O)O)C(C)C; ξV = CC(C)C(N)C(=O)O; Ahx = NCCCCCC(=O)O
# Legend:
# [1] = Pharmacokinetics in plasma of rabbits after a single injection; format: in vivo; for T1/2: dose 0.81 mg/kg; for Vd: dose 0.81 mg/kg
# Description: The pharmacokinetics study for the Conjugate (I) product in plasma of rabbits and rats after a single injection.
# The leporids and rodents are the standard targets for preclinical studies of potential drug products as well as determining the pharmacokinetic parameters. The rabbits and rats are recommended as test systems to study pharmacokinetic properties of pharmaceutical products by the regulatory documents (FIG. 7, FIG. 8).
# […] The pharmacokinetic data, determined from this number of test animals, are sufficient to obtain the primary quantitative characteristics of test product distribution and elimination and the calculation of descriptive statistics parameters.
# • 1. Conjugate (1) • 2. Solubilizer Pluronic F127—in the amount, five-fold greater than the conjugate amount by weight. • 3, Diluent—Haemodes infusion solution. • Dimethyl sulfoxide—in the amount of 5% of the prepared volume. • Rabbit experiment (see Tables 5, 6), • Rat experiment (see Tables 7, 8).
# [2] = tested on: 22Rv1 prostate cancer s.c. xenografts; assay: Antineoplastic efficacy on 22Rv1 prostate cancer xenograft model (tumor growth inhibition); format: in vivo, mice; conditions: for Tumor volume, V mean / TGI %: 22Rv1; for Tumor volume, V mean / TGI % / Tumor volume (individual tumors): 0.3 mg/kg i.p. x3; for TGI %: vs TGC; for Tumor volume (individual tumors): 22Rv1 s.c. xenograft, 0.3 mg/kg
# Description: The evaluation of antineoplastic Conjugate (I) efficacy on xenograft model of prostate cancer.
# To study the drug efficacy the xenograft model was selected as a quite illustrative one for preclinical studies (Application of Prostate Cancer Models for Preclinical Study: Advantages and Limitations of Cell Lines, Patient-Derived Xenografts, and Three-Dimensional Culture of Patient-Derived Cells Takeshi Namekawa, Kazuhiro Kuniko Horie-Inoue, Satoshi Inoue Cells, 2019 January; 8(1), The criteria of antineoplastic activity were tumor growth inhibition (TGI) (Experimental assessment of antineoplastic agents in the USSR and USA/IEd. Ed. Sophyina Z. P., Syrkin A. B., Goldin F., Klein I.//J.: Medicine, 1980) in treated animals (Pon) compared with control (Pk), expressed as a percentage: […]
# The treatment in all groups was started when tumor nodes were appeared.
# Tumor growth was times at the end of study (Table 1).
# [3] = male, Soviet Chinchilla, rabbit, plasma, rabbits N=6, read-out: Concentration in blood plasma, Median
compound,measurement,setting,value
CC[C@H](C)[C@@H]([C@@H](CC(=O)N1CCC[C@H]1[C@H](OC)[C@@H](C)C(=O)N[C@H](C)[C@@H](O)c1ccccc1)OC)N(C)C(=O)[C@@H](NC(=O)[C@H](C(C)C)N(C)C(=O)OCc1ccc(NC(=O)[C@H](CCCNC(N)=O)NC(=O)C(NC(=O)CCCc2cn(CCCNC(=O)[C@H](Cc3ccc(O)cc3)NC(=O)[C@H](Cc3ccccc3)NC(=O)CCC(=O)NCCCCCC(=O)N(CCCC[C@H](NC(=O)N[C@@H](CCC(=O)O)C(=O)O)C(=O)O)Cc3cccc(Cl)c3)nn2)C(C)C)cc1)C(C)C (stereo partly shown) [Conjugate (I)] ({GluureaLys(ε-3-ClBenzyl)-Ahx-Suc}-FY[X1][ξV][Cit][PABC][NMeV]V[Dil][Dolaproine]-X2),level at 10 h,[1]; [3],892 ng/mL
same,level at 12 h,"[1]; male, Soviet Chinchilla, rabbit, plasma, rabbits N=6, read-out: Concentration in blood plasma, Geometr. mean",631 ng/mL
same,level at 12 h,"[1]; male, Soviet Chinchilla, rabbit, plasma, rabbits N=6, read-out: Concentration in blood plasma, Mean value",657 ng/mL
same,level at 12 h,[1]; [3],558 ng/mL
same,C0,"[1]; male, Soviet Chinchilla, rabbit, plasma, rabbits N=6, read-out: C0, Geometr. mean",10900 ng/mL
same,C0,"[1]; male, Soviet Chinchilla, rabbit, plasma, rabbits N=6, read-out: C0, Mean value",11100 ng/mL
same,clearance,"[1]; male, Soviet Chinchilla, rabbit, plasma, rabbits N=6, read-out: CI, Geometr. mean (converted)",0.389 mL/min/kg
same,clearance,"[1]; male, Soviet Chinchilla, rabbit, plasma, rabbits N=6, read-out: CI, Mean value (converted)",0.394 mL/min/kg
same,clearance,"[1]; male, Soviet Chinchilla, rabbit, plasma, rabbits N=6, read-out: CI, Median (converted)",0.374 mL/min/kg
same,level at 0.08 h,"[1]; male, Soviet Chinchilla, rabbit, plasma, rabbits, 0.08 hour, read-out: Concentration in blood plasma (individual animals)",9580 ng/mL
same,level at 0.25 h,"[1]; male, Soviet Chinchilla, rabbit, plasma, rabbits, 0.25 hour, read-out: Concentration in blood plasma (individual animals)",10700 ng/mL
same,level at 0.5 h,"[1]; male, Soviet Chinchilla, rabbit, plasma, rabbits, 0.50 hour, read-out: Concentration in blood plasma (individual animals)",7250 ng/mL
same,level at 1 h,"[1]; male, Soviet Chinchilla, rabbit, plasma, rabbits, 1.00 hour, read-out: Concentration in blood plasma (individual animals)",5100 ng/mL
same,level at 1.5 h,"[1]; male, Soviet Chinchilla, rabbit, plasma, rabbits, 1.50 hour, read-out: Concentration in blood plasma (individual animals)",4850 ng/mL
same,level at 2 h,"[1]; male, Soviet Chinchilla, rabbit, plasma, rabbits, 2.00 hour, read-out: Concentration in blood plasma (individual animals)",3840 ng/mL
same,level at 6 h,"[1]; male, Soviet Chinchilla, rabbit, plasma, rabbits, 6.00 hour, read-out: Concentration in blood plasma (individual animals)",1310 ng/mL
same,level at 8 h,"[1]; male, Soviet Chinchilla, rabbit, plasma, rabbits, 8.00 hour, read-out: Concentration in blood plasma (individual animals)",1360 ng/mL
same,level at 10 h,"[1]; male, Soviet Chinchilla, rabbit, plasma, rabbits, read-out: Concentration in blood plasma (individual animals)",859 ng/mL
same,"AUCt-∞/AUC0-∞, Geometr. mean",[1]; rabbits N=6,11.364%
same,"AUCt-∞/AUC0-∞, Mean value",[1]; rabbits N=6,12.690%
same,"AUCt-∞/AUC0-∞, Median",[1]; rabbits N=6,13.29%
same,"C0, Median",[1]; rabbits N=6,9880 ng/mL
same,"Kel, Geometr. mean",[1]; rabbits N=6,0.160 h⁻¹
same,"Kel, Mean value",[1]; rabbits N=6,0.170 h⁻¹
same,"Kel, Median",[1]; rabbits N=6,0.153 h⁻¹
same,"Concentration in blood plasma, Geometr. mean","[1]; rabbits N=6, 1.50 hour",5046 ng/mL
same,"Concentration in blood plasma, Median","[1]; rabbits N=6, 8.00 hour",1195 ng/mL
same,Concentration in blood plasma (individual animals),"[1]; rabbits, 0.08 hour",9617 ng/mL
same,Concentration in blood plasma (individual animals),"[1]; rabbits, 2.00 hour",3781 ng/mL
same,Concentration in blood plasma (individual animals),"[1]; rabbits, 3.00 hour",3693 ng/mL
same,AUC0-t,"[1]; rabbits, individual animals",39504 ng·h/mL and 21886 ng·h/mL and 33617 ng·h/mL and 28972 ng·h/mL and 28872 ng·h/mL
same,AUC0-∞,"[1]; rabbits, individual animals",42004 ng·h/mL and 26025 ng·h/mL and 39814 ng·h/mL and 36928 ng·h/mL and 30768 ng·h/mL
same,AUCt-∞/AUC0-∞,"[1]; rabbits, individual animals",11.01% and 5.95% and 15.90% and 15.57% and 21.54% and 6.16%
same,C0,"[1]; rabbits, individual animals",17049 ng/mL and 9815 ng/mL and 9947 ng/mL and 9624 ng/mL and 9582 ng/mL
same,CI,"[1]; rabbits, individual animals",0.3827 mL/min/kg and 0.3213 mL/min/kg and 0.5187 mL/min/kg and 0.339 mL/min/kg and 0.3655 mL/min/kg and 0.4388 mL/min/kg
same,Kel,"[1]; rabbits, individual animals",0.137 h⁻¹ and 0.234 h⁻¹ and 0.123 h⁻¹ and 0.168 h⁻¹ and 0.099 h⁻¹ and 0.256 h⁻¹
same,MRT0-t,"[1]; rabbits, individual animals",3.14 h and 3.29 h and 3.88 h and 3.74 h and 3.46 h
same,T1/2,"[1]; rabbits, individual animals",5.06 h and 2.97 h and 5.63 h and 4.12 h and 7.01 h and 2.70 h
same,Vd,"[1]; rabbits, individual animals",0.16766 L/kg and 0.08255 L/kg and 0.2526 L/kg and 0.12101 L/kg and 0.22174 L/kg and 0.1027 L/kg
same,"Tumor volume, V mean",[2]; day 1,28 mm^3
same,TGI %,[2]; day 1 after treatment completion,83%
same,"Tumor volume, V mean",[2]; day 4,83 mm^3
same,TGI %,[2]; day 4,85%
same,"Tumor volume, V mean",[2]; day 8,341 mm^3
same,TGI %,[2]; day 8,70%
same,Tumor volume (individual tumors),[2]; day 1 after treatment,22 mm^3 and 17 mm^3 (2×) and 45 mm^3 and 14 mm^3 and 19 mm^3 and 30 mm^3 (2×) and 32 mm^3 and 31 mm^3 and 51 mm^3 and 34 mm^3 and 18 mm^3 and 40 mm^3
same,Tumor volume (individual tumors),[2]; day 4 after treatment,72 mm^3 (2×) and 42 mm^3 and 75 mm^3 and 38 mm^3 and 78 mm^3 and 173 mm^3 and 63 mm^3 and 108 mm^3 and 115 mm^3 and 65 mm^3 and 74 mm^3 and 102 mm^3 and 81 mm^3
same,Tumor volume (individual tumors),[2]; day 8 after treatment,346 mm^3 and 111 mm^3 and 369 mm^3 and 186 mm^3 and 463 mm^3 and 597 mm^3 and 570 mm^3 and 314 mm^3 and 853 mm^3 and 177 mm^3 and 247 mm^3 and 349 mm^3 and 94 mm^3 and 96 mm^3
same,Dose achieving effective tumor growth inhibition (TGI),"[2]; mouse, in vivo",approximately 0.3 mg/kg
